For orientation: Kd means the constant that tells how readily two partners part at equilibrium. By koff is commonly meant the first-order rate constant of dissociation. A word on the kon: it is the second-order rate constant of association.

Where two headings read alike, the source gives them in different places.

Assay [1] addresses T1, hTfR (human transferrin receptor, source and construct not stated) (human, UniProt P02786 89-760, limits assumed). Briefly: ELISA; ratio of the Kd on transferrin-captured hTfR to the Kd on directly coated hTfR. The method, then: (§1) Antibodies were biotinylated using 50 fold molar excess of EZ-Link No weigh NHS-Biotin (Thermo Scientific A39256) following manufacturer's instructions. Half-well high-bind plates (Costar #3690) were coated with 500 ng/mL purified human holo-transferrin (R&D Systems 2914-HT) in PBS at 4° C. overnight. For comparison, plates were coated directly with hTfR. Plates were washed four times with 100 μL of Tris buffered saline+Tween (20×TBST, Cell Signaling 9997S). 100 μL of Superblock (ThermoFisher PI-37535) was added to each well and incubated for 1 hour at room temperature. The wash step was repeated before the addition of the hTfR (200 ng/mL in 25 μl) to the transferrin plates, or Superblock to the hTfR plates, and incubated for 30 minutes. Biotinylated antibodies were diluted to 20 nM for the high concentration and added to the plates with 3-fold serial dilution. 25 μl/well was added to the 25 μl already in the plate. Plates were incubated for 1 hour, and wash step was repeated. Streptavidin-HRP (R&D Systems DY998) was added following recommended dilution on the package insert, and a final wash step was done. Binding was measured by the addition of 50 μL of 1-Step™ Ultra TMB-ELISA (ThermoFisher, 34028), incubated for 5 minutes, and the reaction was stopped with the addition of 25 μL of Stop Solution 2N sulfuric Acid (R&D Systems DY994). Absorbance was measured at 450 nm, with reference wavelength 570 nm subtracted. Binding constants were determined using GraphPad Prism Specific Binding with Hill Slope. Change in antibody binding constants in the presence versus absense of transferrin is considered relative to the commercially available antibody which is known to have an overlapping epitope with transferrin (AF2474, R&D Systems).
(In general: In an ELISA, binding on a coated surface is turned into a signal by an enzyme label.)

In assay [2] the target is T1, hTfR (human transferrin receptor, …). Briefly: SPR (BioRad ProteOn XPR36), mAb captured on Protein A, hTfR as analyte, 25 C. The procedure:
The binding kinetics of nine exemplary humanized anti-TfR antibodies and the parent chimeric antibody were characterized. Studies were run on a BioRad ProteOn XPR36 optical biosensor using a GLM sensor chip coated with Protein A for mAb capture. Running buffer included 10 mM EPES, 150 mM NaCl, pH 7.4 with 0.05 tween-20 with 0.2 mg/ml BSA. Data were collected at 25 degrees C. All mAbs were diluted into running buffer to 2 ug/ml based on the stock concentration provided. Each was then captured for 40 seconds over a Protein A surface.
hTfR (100 ug) was dissolved into […] of water to yield a 4.3 uM stock concentration. hTfR was dilted to 43 nM as the highest concentration and tested in a 3 fold dilution series. hTfR was injected at 200 ul/min for 2 minutes followed by a one-hour dissociation phase.

Assay [3] shares this target. Briefly: ELISA, biotinylated antibody on hTfR captured by plate-coated human holo-transferrin (Tf+TfR); fit: specific binding with Hill slope. The method, then: as §1
The target is the same in assay [4]. Briefly: ELISA, biotinylated antibody on hTfR captured by plate-coated HFE (HFE+TfR); fit: specific binding with Hill slope.
Assay [5] concerns the target T2, recombinant human transferrin receptor protein (Sino Biological 11020-H07H) (human, UniProt P02786 89-760).
T2 construct: Bought protein coated on ELISA plates; also called recombinant human TfR1; human TfR1
Briefly: ELISA on plate-coated recombinant human TfR1 (CD71); fit: specific binding with Hill slope (row labels blank in the lower block; row taken by the order Bmax, h, Kd). The procedure: (§2) Half-well high-binding 96-well plates (Costar #3690) were coated with recombinant human transferrin receptor protein (Sino Biological 11020-H07H) or recombinant cyno transferrin receptor protein (Sino Biological 90253-C07H) at 1 ng/μL in PBS (Gibco 14190) and incubated overnight at 4° C. Plates were washed four times with 100 μL of Tris buffered saline+Tween (20×TBST, Cell Signaling 9997S). 100 μL of Superblock (ThermoFisher PI-37535) was added to each well and incubated for 1 hour at room temperature. The wash step was repeated before the addition of the samples. Samples were added at concentrations up to 10 nM, 50 μL/well. Plates were incubated for another hour at room temp and wash step repeated. Secondary antibody (Peroxidase AffiniPure Goat Anti-Human IgG, Fcγ Fragment Specific, Jackson Immunoresearch, 109-035-098) was diluted 1:5000 in Superblock and 50 μL/well added. Plates were incubated for 1 hour at room temperature and washed one more time. Binding was measured by the addition of 50 μL of 1-Step™ Ultra TMB-ELISA (ThermoFisher, 34028), incubated for 5 minutes, and the reaction was stopped with the addition of 25 μL of Stop Solution 2N sulfuric Acid (R&D Systems DY994). Absorbance was measured at 450 nm, with reference wavelength 570 nm subtracted. Binding constants were determined using GraphPad Prism Specific Binding with Hill Slope.

Assay [6] addresses T3, TfR2 (transferrin receptor 2) (UniProt Q9UP52 105-801, limits assumed).
T3 sequence (looked up): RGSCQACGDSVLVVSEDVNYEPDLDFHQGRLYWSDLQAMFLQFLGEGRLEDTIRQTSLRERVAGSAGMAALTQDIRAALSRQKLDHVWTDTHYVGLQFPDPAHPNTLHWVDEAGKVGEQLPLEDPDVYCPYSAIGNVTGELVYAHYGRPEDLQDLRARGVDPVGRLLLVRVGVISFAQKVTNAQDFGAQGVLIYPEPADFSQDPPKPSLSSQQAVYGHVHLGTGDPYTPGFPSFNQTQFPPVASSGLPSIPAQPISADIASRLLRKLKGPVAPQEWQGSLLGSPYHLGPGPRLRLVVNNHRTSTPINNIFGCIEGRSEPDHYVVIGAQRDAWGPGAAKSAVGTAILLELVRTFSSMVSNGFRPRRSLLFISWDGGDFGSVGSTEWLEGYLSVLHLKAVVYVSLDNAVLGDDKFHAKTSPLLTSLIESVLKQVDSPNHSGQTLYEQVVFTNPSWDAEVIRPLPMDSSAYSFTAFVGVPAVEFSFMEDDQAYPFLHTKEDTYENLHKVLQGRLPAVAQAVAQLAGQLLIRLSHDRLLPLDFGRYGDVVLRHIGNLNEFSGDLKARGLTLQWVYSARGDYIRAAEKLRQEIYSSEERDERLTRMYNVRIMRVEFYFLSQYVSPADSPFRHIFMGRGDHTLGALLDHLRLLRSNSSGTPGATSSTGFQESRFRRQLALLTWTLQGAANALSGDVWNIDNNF
Briefly: A450 plate assay on TfR2 (method not described in the text).

In assay [7] the target is T4, recombinant cyno transferrin receptor protein (Sino Biological 90253-C07H) (cyno, UniProt H9EXL1 89-760 (rhesus entry)).
T4 construct: Bought protein coated on ELISA plates; also called recombinant cyno TfR1; cynoTfR1
Briefly: ELISA on plate-coated recombinant cyno TfR1 (CD71); fit: specific binding with Hill slope. The procedure: as §2

Assay [8] deals with T1, hTfR (human transferrin receptor, …). Briefly: ELISA; ratio of the Kd on HFE-captured hTfR to the Kd on directly coated hTfR.
Assay [9] deals with T2, recombinant human transferrin receptor …. Briefly: ELISA on plate-coated recombinant human TfR1; fit: specific binding with Hill slope. The method, then: as §2, with “100” for “Half-well high-binding 96-well plates (Costar #3690) were coated with recombinant human transferrin receptor protein (Sino Biological 11020-H07H) or recombinant cyno transferrin receptor protein (Sino Biological 90253-C07H) at 1 ng/μL in PBS (Gibco 14190) and incubated overnight at 4° C. Plates were washed four times with 100 μL of Tris buffered saline+Tween (20×TBST, Cell Signaling 9997S). 100”
(§3) Half-well high-binding 96-well plates (Costar #3690) were coated with recombinant human transferrin receptor protein (Sino Biological 11020-H07H) or recombinant cyno transferrin receptor protein (Sino Biological 90253-C07H) at 1 ng/μL in PBS (Gibco 14190) and incubated overnight at 4° C. […] Absorbance was measured at 450 nm, with reference wavelength 570 nm subtracted. […]

Assay [10] has as its target T4, recombinant cyno transferrin receptor …. Briefly: ELISA on plate-coated recombinant cyno TfR1 (CD71); fit: specific binding with Hill slope. The method, then:
as §2, with “100” for “Half-well high-binding 96-well plates (Costar #3690) were coated with recombinant human transferrin receptor protein (Sino Biological 11020-H07H) or recombinant cyno transferrin receptor protein (Sino Biological 90253-C07H) at 1 ng/μL in PBS (Gibco 14190) and incubated overnight at 4° C. Plates were washed four times with 100 μL of Tris buffered saline+Tween (20×TBST, Cell Signaling 9997S). 100”
as §3
The source holds these as a separate data set.

T1 sequence (P02786 89-760 limits assumed): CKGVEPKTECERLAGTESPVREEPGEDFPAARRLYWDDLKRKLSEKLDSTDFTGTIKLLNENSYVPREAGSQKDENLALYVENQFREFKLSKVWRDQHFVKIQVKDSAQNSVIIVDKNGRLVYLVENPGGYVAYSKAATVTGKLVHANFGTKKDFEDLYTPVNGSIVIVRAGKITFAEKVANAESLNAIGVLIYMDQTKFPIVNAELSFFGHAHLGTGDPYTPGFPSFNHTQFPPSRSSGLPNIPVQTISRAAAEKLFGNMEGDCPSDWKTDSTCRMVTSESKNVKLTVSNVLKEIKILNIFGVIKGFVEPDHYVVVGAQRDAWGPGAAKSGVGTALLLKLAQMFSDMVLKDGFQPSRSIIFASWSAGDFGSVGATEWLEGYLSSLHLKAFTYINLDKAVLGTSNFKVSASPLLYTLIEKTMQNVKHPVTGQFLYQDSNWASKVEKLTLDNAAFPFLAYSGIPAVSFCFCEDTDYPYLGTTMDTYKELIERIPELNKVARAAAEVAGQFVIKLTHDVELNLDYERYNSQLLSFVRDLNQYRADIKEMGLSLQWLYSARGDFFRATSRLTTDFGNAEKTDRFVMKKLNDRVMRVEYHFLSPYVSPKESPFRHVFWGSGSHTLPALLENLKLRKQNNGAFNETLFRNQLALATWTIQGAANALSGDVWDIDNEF
T2 sequence (P02786 89-760 limits assumed): as above
T4 sequence (chain, as listed by the source C07H C07H): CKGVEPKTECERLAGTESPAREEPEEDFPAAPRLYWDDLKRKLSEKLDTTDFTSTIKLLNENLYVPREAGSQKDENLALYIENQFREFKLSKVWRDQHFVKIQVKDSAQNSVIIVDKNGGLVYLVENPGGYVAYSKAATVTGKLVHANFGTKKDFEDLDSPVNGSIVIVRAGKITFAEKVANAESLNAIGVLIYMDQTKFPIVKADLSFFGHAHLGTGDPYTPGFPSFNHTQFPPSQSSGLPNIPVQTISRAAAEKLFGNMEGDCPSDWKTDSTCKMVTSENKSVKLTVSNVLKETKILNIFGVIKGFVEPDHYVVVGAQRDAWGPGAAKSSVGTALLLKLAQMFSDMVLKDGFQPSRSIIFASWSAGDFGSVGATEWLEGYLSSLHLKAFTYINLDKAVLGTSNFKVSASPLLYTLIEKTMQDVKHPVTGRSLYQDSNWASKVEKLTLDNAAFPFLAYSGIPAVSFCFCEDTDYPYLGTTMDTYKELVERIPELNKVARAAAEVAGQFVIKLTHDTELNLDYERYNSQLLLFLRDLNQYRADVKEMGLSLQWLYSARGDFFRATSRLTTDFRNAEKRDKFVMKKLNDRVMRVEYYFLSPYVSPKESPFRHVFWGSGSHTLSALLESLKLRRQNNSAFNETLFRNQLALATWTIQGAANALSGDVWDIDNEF

B1: 13E4-Variant 15ii (antibody, human IgG1, kappa, L234A L235A)
heavy: QVQLVQSGAEVKKPGASVKVSCKASGYTFTNYWMHWVRQAPGQGLEWMGEINPIQGRSNYAEKFQGRVTLTVDTSSSTAYMELSSLRSEDTATYYCARGTRAMHYWGQGTLVTVSSASTKGPSVFPLAPSSKSTSGGTAALGCLVKDYFPEPVTVSWNSGALTSGVHTFPAVLQSSGLYSLSSVVTVPSSSLGTQTYICNVNHKPSNTKVDKRVEPKSCDKTHTCPPCPAPEAAGGPSVFLFPPKPKDTLMISRTPEVTCVVVDVSHEDPEVKFNWYVDGVEVHNAKTKPREEQYNSTYRVVSVLTVLHQDWLNGKEYKCGVSNKALPAPIEKTISKAKGQPREPQVYTLPPSREEMTKNQVSLTCLVKGFYPSDIAVEWESNGQPENNYKTTPPVLDSDGSFFLYSKLTVDKSRWQQGNVFSCSVMHEALHNHYTQKSLSLSPG
light: DIQMTQSPSSLSASVGDRVTITCRTSENIYSNLAWYQQKPGKAPKLLIYAGTNLADGVPSRFSGSGSGTDYTLTISSLQPEDFANYYCQHFWGTPLTFGGGTKVEIKRTVAAPSVFIFPPSDEQLKSGTASVVCLLNNFYPREAKVQWKVDNALQSGNSQESVTEQDSKDSTYSLSSTLTLSKADYEKHKVYACEVTHQGLSSPVTKSFNRGEC
notes: Humanized hIgG1 with Fc mutations; also called hIgG1 TfR-Var15ii
In the case of B1, the “Kd(Tf+TfR)/Kd(TfR)” value in assay [1] stood at 2.5. Further, the Kd in [2] is 13.1 pM; in assay [3] it was 84.9 pM; in [4], 346 pM; in assay [5] it was 9.87 pM; in assay [7], 17.9 pM. The koff in assay [2] turned out to be 9.14e-06 s⁻¹. This molecule also showed an on-rate constant (kon) in assay [2] of 697000 M⁻¹ s⁻¹. Further, the Bmax is 3.52 A450 in assay [3], 2.79 A450 in assay [4], 93.7 % max binding in assay [5] and 94.4 % max binding in [7]. Besides, the h in assay [3] amounted to 1.46; in assay [4] it was 1.28; in assay [5], 1.25; in assay [7], 1.53. The binding result in [6] is given as “no binding (tested: 1000 nM)”. Besides, in assay [8], the “Kd(HFE+TfR)/Kd(TfR)” value came to 10.2.

B2: hTfR1.IgG2 mAb-SSB siRNA conjugate (DAR1) (antibody, DAR 1, V domains shown)
VH: QVQLQQPGAELVKPGASVKLSCKASGYTFTNYWMHWVKQRPGQGLEWIGEINPINGRSNYGERFKTKATLTVDKSSSTAYMQLSSLTSEDSAVYYCARGTRAMHYWGQGTSVTVSS
VL: DIQMTQSPASLSVSVGETVTITCRTSENIYNNLAWYQQKQGKSPQLLVYAATNLADGVPSRFSGSGSGTQYSLKINSLQSEDFGNYYCQHFWGTPLTFGAGTKLELKR
modifications: SSB siRNA duplex joined through a bis-maleimide (BisMal) linker to TCEP-reduced cysteines, DAR1; chain and positions not stated; remaining free cysteines capped with N-ethylmaleimide
notes: also called TfR-SSB DAR 1; conjugated hTfRL.IgG2 mAb
With B2, the Kd in assay [9] was 3.18 pM; in [10] it was 4.99 pM.

B3: hTfR1.IgG2 mAb (chimeric human IgG2 anti-hTfR1 antibody) (antibody, V domains shown)
VH: B2 VH
VL: B2 VL
notes: The heavy variable region is printed there only as images; also called hTfRL.IgG2 mAb; TfR1-IgG2 mAb chimera
For the molecule B3, the Kd in assay [9] is 3.22 pM; in assay [10], 4.87 pM.

The values are drawn from patent publication US20200325237A1 (AVIDITY BIOSCIENCES, published 2020).
